In US20200123499A1 (MIT, published 2020):

Target: T1, DPY-22 PQ-rich domain (C. elegans, UniProt Q20497 2142-3498, limits assumed)
T1 construct: domain: PQ-rich domain; Expressed in yeast from a Clontech two-hybrid bait or prey plasmid, so fused to a Gal4 BD or AD; also called C-terminal PQ-rich domain of DPY-22; MED12/DPY22
T1 sequence (looked up): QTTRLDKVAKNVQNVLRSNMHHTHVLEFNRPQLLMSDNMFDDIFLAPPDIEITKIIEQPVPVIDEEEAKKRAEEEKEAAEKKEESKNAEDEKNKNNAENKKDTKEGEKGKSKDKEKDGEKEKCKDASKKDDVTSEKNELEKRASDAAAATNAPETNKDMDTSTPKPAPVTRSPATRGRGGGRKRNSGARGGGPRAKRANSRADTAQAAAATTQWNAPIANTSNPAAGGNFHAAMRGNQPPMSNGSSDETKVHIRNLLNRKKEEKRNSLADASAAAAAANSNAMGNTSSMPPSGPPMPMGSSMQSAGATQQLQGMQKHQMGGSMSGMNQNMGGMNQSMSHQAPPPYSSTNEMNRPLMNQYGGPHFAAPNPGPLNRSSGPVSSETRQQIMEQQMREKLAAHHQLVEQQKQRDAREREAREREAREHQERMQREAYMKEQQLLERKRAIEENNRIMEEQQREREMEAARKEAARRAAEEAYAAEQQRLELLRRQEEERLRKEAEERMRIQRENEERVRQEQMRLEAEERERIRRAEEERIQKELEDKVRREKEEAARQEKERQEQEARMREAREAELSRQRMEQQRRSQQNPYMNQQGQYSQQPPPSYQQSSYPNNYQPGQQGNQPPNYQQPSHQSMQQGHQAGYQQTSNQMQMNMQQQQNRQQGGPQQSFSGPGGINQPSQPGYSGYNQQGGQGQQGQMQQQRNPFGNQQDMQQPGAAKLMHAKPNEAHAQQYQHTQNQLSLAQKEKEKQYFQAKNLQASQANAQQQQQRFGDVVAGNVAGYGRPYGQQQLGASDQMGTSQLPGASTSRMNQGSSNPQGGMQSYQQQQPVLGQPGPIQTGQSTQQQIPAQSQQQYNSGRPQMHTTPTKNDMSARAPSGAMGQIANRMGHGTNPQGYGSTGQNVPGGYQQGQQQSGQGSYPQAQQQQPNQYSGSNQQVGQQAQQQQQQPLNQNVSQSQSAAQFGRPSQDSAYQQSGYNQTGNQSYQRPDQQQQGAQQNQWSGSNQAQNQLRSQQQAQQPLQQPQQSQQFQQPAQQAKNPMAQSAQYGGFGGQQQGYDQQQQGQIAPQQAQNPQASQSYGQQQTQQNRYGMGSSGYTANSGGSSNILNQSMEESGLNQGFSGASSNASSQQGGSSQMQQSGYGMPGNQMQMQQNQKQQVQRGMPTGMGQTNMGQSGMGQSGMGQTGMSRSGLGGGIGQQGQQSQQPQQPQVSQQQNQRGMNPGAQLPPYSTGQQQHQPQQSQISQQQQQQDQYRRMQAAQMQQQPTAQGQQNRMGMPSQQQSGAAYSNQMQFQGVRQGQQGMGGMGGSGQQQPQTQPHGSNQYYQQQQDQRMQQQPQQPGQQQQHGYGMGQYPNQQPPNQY
Test: yeast two-hybrid
Experimental: The yeast two-hybrid assay was performed following the manufacturer's protocol (Clontech). Briefly, fresh Yeast Gold colonies (<1 week old) were cultured in YPD liquid medium at 30° C. to the O.D.600 of 0.5, harvested, washed, and resuspended in 1.1×TE/LiAc. 100 ng of bait and prey plasmids were mixed with […] of denatured salmon sperm carrier DNA and were transformed into competent yeast cells in the presence of 1×PEG/LiAc. The cell mix was then plated on both -Leu-Trp and -Leu-Trp-His-Ade dropout plates and was allowed to grow and 30° C. for 2-3 days. Single colonies that grew on the double and quadruple dropout plates were resuspended in H2O and respotted to fresh dropout plates, which were grown at 30° C. for 2 days. Images of the respotted plates were captured using a Canon Powershot A590 digital camera (Canon) and processed by Photoshop CS4 software (Adobe).
Two let-19 alleles contain missense mutations, and all five of the dpy-22 alleles contain nonsense mutations that truncate the C-terminal PQ-rich domain (FIG. 3C). In vertebrates, Med12 interacts with transcription factors through the PQ-rich domain to promote gene expression and tissue development (37-41). To determine if Mediator might specifically promote I4 neurogenesis by interacting with bHLH proneural factors, we performed a yeast two-hybrid assay. […]

binding result: no binding
B1: HLH-3 (other)
chain: MTASTSSTPSTSTKIPSSSKSSVTKQTKQKRNERERKRVDQVNQGFVLLQERVPKAAGNKAKLSKVETLREAARYIQELQKQLGMSSTSFHNSMPADFPTPEQSPVYPQSVCSMMAQTPSPSYTSPYYPPPQMMSSNQHDMSSHYYQESSSSSASTSGDHHSFYSHTETY
notes: Yeast two-hybrid fusion (Gal4 BD or AD); also called ASCL1/HLH3; C. elegans homolog of Ascl1/Mash1
